Results taken from US20160122429A1.

What was measured:
Assay in all cases: cell-based or functional assay
[1] = biological target: human non-cleavable membrane bound TNFα on CHO cells (human) (UniProt P01375)
[2] = biological target: human TNFα (soluble) (human) (UniProt P01375)
human IL-23 (human) = human IL-23 (human) (UniProt Q9NPF7)
Sequence of human IL-23 (human) (Q9NPF7 20-189, chain 1 of 2): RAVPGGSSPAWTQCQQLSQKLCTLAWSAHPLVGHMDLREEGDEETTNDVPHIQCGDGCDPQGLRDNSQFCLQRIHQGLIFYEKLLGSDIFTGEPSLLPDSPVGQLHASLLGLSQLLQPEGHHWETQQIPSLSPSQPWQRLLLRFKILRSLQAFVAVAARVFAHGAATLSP
Sequence of human IL-23 (human) (P29460 23-328, chain 2 of 2, further chain): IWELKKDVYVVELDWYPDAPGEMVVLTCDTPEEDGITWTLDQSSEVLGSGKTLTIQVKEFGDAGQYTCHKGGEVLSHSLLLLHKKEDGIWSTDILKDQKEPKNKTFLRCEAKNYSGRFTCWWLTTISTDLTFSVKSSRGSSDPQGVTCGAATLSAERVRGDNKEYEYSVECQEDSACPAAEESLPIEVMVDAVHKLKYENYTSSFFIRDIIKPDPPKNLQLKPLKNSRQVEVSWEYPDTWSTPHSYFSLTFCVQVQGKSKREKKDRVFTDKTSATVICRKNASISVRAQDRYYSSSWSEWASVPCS

Sequence of human TNFα (soluble) (human) (P01375 77-233 limits assumed): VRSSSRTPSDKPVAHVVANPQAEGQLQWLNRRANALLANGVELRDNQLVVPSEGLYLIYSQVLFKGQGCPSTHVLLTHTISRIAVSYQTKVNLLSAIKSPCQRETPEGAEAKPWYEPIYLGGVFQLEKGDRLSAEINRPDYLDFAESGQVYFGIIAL
Sequence of human non-cleavable membrane bound TNFα on CHO cells (human) (P01375 whole entry): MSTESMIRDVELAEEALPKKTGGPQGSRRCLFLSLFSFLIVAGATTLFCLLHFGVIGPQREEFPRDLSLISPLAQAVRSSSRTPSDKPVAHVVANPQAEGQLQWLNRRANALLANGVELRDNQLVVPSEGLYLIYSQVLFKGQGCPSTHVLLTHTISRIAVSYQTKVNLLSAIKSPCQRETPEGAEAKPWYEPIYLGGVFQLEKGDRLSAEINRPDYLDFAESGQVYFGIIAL

Row | Substance | inhibition of killing of L929 cells by human non-cleavable membrane bound TNFα CHO cells (IC50, MTT assay) [1] [nM] | CXCL1 Level (pg/mL) in plasma of mice challenged with human TNFα [2] [pg/mL] | mIL22 Level (pg/mL) in plasma of mice challenged with human IL-23 (human IL-23 (human)) [pg/mL]
1 | Adalimumab with IgG1 isotype (parental TNFα antibody) | 0.581 | 633 | 
2 | human IgG1 isotype control antibody |  | 2420 | 132
